{"source": "paper PMC10786891", "about": "“Massively parallel profiling of RNA-targeting CRISPR-Cas13d”"}
{"target": "T1, EsCas13d, nuclease-dead (Eubacterium siraeum, UniProt B0MS50, R295A;H300A;R849A;H854A)", "T1 sequence": "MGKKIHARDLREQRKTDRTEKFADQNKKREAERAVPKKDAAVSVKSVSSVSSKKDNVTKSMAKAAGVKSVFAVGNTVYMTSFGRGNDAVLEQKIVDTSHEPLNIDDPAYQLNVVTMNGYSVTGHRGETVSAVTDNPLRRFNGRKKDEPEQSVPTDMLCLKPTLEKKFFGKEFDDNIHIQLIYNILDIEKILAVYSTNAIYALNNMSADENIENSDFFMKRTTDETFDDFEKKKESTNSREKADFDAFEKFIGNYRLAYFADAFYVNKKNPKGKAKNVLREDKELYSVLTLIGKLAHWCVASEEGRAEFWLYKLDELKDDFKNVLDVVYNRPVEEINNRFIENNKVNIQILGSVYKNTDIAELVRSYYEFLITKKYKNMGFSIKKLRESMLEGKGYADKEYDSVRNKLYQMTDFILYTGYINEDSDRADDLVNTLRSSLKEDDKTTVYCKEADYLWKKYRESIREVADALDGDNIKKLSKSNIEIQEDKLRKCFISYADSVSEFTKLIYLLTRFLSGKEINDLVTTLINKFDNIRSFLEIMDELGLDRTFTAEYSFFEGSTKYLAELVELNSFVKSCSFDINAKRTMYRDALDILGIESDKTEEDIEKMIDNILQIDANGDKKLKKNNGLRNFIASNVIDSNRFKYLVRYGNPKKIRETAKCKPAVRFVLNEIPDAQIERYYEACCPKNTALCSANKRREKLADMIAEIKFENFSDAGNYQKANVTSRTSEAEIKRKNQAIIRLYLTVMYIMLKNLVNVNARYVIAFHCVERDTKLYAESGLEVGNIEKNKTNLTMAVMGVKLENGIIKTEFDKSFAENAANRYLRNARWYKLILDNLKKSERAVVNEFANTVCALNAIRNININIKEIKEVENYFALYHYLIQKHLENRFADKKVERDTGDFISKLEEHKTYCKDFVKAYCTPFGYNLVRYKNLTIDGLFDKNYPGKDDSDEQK", "assay": "crRNA (strand 1, pre-loaded); Mg2+; 40 mM Tris-HCl pH 7.5, 150 mM NaCl, 6 mM MgCl2, 1 mM DTT, 0.1% Tween-20, 0.2 mg/ml BSA; 25 C; 10 min per concentration, then washed", "details": "tags: His6-TwinStrep-SUMO cleaved; N-terminal SNAP kept (SNAP-Surface 488); label: 3' end held by stalled T7 RNA polymerase", "units": {"Kd": "nM"}}
{"binder": "target 3 U22C (mixed) RNA 1: CACCCGUGCAAAAUUGCAGGGGUCUAAAACGACCUGAAUAUUUCAGAUCAAA RNA 2: GGGAAUGGAUCCACAUCUACGAAUUCGUUCUUGAUCUGAAAUAUUCAGGUCUGCAGAUCGGAAGAGCACACGU", "Kd": "13.8 ± 1.8"}
{"binder": "target 3 C1G,U22C (mixed) RNA 1: CACCCGUGCAAAAUUGCAGGGGUCUAAAACGACCUGAAUAUUUCAGAUCAAA RNA 2: GGGAAUGGAUCCACAUCUACGAAUUCGUUCUUGAUCUGAAAUAUUCAGGUGUGCAGAUCGGAAGAGCACACGU", "Kd": "41 ± 8"}
{"binder": "target 3 insA 3' of 6,insC 3' of 4 (mixed) RNA 1: CACCCGUGCAAAAUUGCAGGGGUCUAAAACGACCUGAAUAUUUCAGAUCAAA RNA 2: GGGAAUGGAUCCACAUCUACGAAUUCGUUUUUGAUCUGAAAUAUUCAAGCGUCUGCAGAUCGGAAGAGCACACGU", "Kd": "8.4 ± 0.95"}
{"binder": "target 3 insG 3' of 2,insC 3' of 2 (mixed) RNA 1: CACCCGUGCAAAAUUGCAGGGGUCUAAAACGACCUGAAUAUUUCAGAUCAAA RNA 2: GGGAAUGGAUCCACAUCUACGAAUUCGUUUUUGAUCUGAAAUAUUCAGGUGCCUGCAGAUCGGAAGAGCACACGU", "Kd": "68.5 ± 10.5"}
{"binder": "target 3 insU 3' of 9,insC 3' of 8 (mixed) RNA 1: CACCCGUGCAAAAUUGCAGGGGUCUAAAACGACCUGAAUAUUUCAGAUCAAA RNA 2: GGGAAUGGAUCCACAUCUACGAAUUCGUUUUUGAUCUGAAAUAUUCUCAGGUCUGCAGAUCGGAAGAGCACACGU", "Kd": "81.5 ± 13"}
{"binder": "target 3 insU 3' of 16,insU 3' of 3 (mixed) RNA 1: CACCCGUGCAAAAUUGCAGGGGUCUAAAACGACCUGAAUAUUUCAGAUCAAA RNA 2: GGGAAUGGAUCCACAUCUACGAAUUCGUUUUUGAUCUUGAAAUAUUCAGGUUCUGCAGAUCGGAAGAGCACACGU", "Kd": "29 ± 5"}
{"binder": "target 1 insA 3' of 10,insA 3' of 6 (mixed) RNA 1: CACCCGUGCAAAAAUGCAGGGGUCUAAAACUGAGCGGAUAACCUCUCUAUGG RNA 2: GGGAAUGGAUCCACAUCUACGAAUUCGUACCAUAGAGAGGUUAAUCCAGCUCACCGAGAUCGGAAGAGCACACGU", "Kd": "11.1 ± 0.7"}
{"binder": "target 3 insC 3' of 4,insG 3' of 2 (mixed) RNA 1: CACCCGUGCAAAAUUGCAGGGGUCUAAAACGACCUGAAUAUUUCAGAUCAAA RNA 2: GGGAAUGGAUCCACAUCUACGAAUUCGUUUUUGAUCUGAAAUAUUCAGCGUGCUGCAGAUCGGAAGAGCACACGU", "Kd": "50.5 ± 9.5"}
{"binder": "target 3 C1U,A12C (mixed) RNA 1: CACCCGUGCAAAAUUGCAGGGGUCUAAAACGACCUGAAUAUUUCAGAUCAAA RNA 2: GGGAAUGGAUCCACAUCUACGAAUUCGUUUUUGAUCUGACAUAUUCAGGUUUGCAGAUCGGAAGAGCACACGU", "Kd": "86.5 ± 17"}
{"binder": "target 3 insG 3' of 9,insC 3' of 8 (mixed) RNA 1: CACCCGUGCAAAAUUGCAGGGGUCUAAAACGACCUGAAUAUUUCAGAUCAAA RNA 2: GGGAAUGGAUCCACAUCUACGAAUUCGUUUUUGAUCUGAAAUAGUCUCAGGUCUGCAGAUCGGAAGAGCACACGU", "Kd": "90 ± 16.5"}
{"binder": "target 3 G4A,A11G (mixed) RNA 1: CACCCGUGCAAAAUUGCAGGGGUCUAAAACGACCUGAAUAUUUCAGAUCAAA RNA 2: GGGAAUGGAUCCACAUCUACGAAUUCGUUUUUGAUCUGAAGUAUUCAAGUCUGCAGAUCGGAAGAGCACACGU", "Kd": "36 ± 5"}
{"binder": "target 3 del4,del5 (mixed) RNA 1: CACCCGUGCAAAAUUGCAGGGGUCUAAAACGACCUGAAUAUUUCAGAUCAAA RNA 2: GGGAAUGGAUCCACAUCUACGAAUUCGUUUUUGAUCUGAAAUAUUCGUCUGCAGAUCGGAAGAGCACACGU", "Kd": "24.6 ± 2.15"}
{"binder": "target 3 U2A,A18G (mixed) RNA 1: CACCCGUGCAAAAUUGCAGGGGUCUAAAACGACCUGAAUAUUUCAGAUCAAA RNA 2: GGGAAUGGAUCCACAUCUACGAAUUCGUUUUUGGUCUGAAAUAUUCAGGACUGCAGAUCGGAAGAGCACACGU", "Kd": "55.5 ± 7.5"}
{"binder": "target 3 C1G,A12G (mixed) RNA 1: CACCCGUGCAAAAUUGCAGGGGUCUAAAACGACCUGAAUAUUUCAGAUCAAA RNA 2: GGGAAUGGAUCCACAUCUACGAAUUCGUUUUUGAUCUGAGAUAUUCAGGUGUGCAGAUCGGAAGAGCACACGU", "Kd": "50 ± 9"}
{"binder": "target 3 insU 3' of 16,insU 3' of 1 (mixed) RNA 1: CACCCGUGCAAAAUUGCAGGGGUCUAAAACGACCUGAAUAUUUCAGAUCAAA RNA 2: GGGAAUGGAUCCACAUCUACGAAUUCGUUUUUGAUCUUGAAAUAUUCAGGUCUUGCAGAUCGGAAGAGCACACGU", "Kd": "39.5 ± 6.5"}
{"binder": "target 1 U10G,U11G (mixed) RNA 1: CACCCGUGCAAAAAUGCAGGGGUCUAAAACUGAGCGGAUAACCUCUCUAUGG RNA 2: GGGAAUGGAUCCACAUCUACGAAUUCGUACCAUAGAGAGGGGAUCCGCUCACCGAGAUCGGAAGAGCACACGU", "Kd": "32.7 ± 2.9"}
{"binder": "target 3 insC 3' of 22,insA 3' of 21 (mixed) RNA 1: CACCCGUGCAAAAUUGCAGGGGUCUAAAACGACCUGAAUAUUUCAGAUCAAA RNA 2: GGGAAUGGAUCCACAUCUACGAAUUCGUUUCUAUGAUCUGAAAUAUUCAGGUCUGCAGAUCGGAAGAGCACACGU", "Kd": "43 ± 5"}
{"binder": "target 3 insC 3' of 22,insU 3' of 6 (mixed) RNA 1: CACCCGUGCAAAAUUGCAGGGGUCUAAAACGACCUGAAUAUUUCAGAUCAAA RNA 2: GGGAAUGGAUCCACAUCUACGAAUUCGUUUCUUGAUCUGAAAUAUUCUAGGUCUGCAGAUCGGAAGAGCACACGU", "Kd": "29.6 ± 2.7"}
{"binder": "target 3 insA 3' of 2 (mixed) RNA 1: CACCCGUGCAAAAUUGCAGGGGUCUAAAACGACCUGAAUAUUUCAGAUCAAA RNA 2: GGGAAUGGAUCCACAUCUACGAAUUCGUUUUUGAUCUGAAAUAUUCAGGUACUGCAGAUCGGAAGAGCACACGU", "Kd": "30.2 ± 2.55"}
{"binder": "target 3 A5U,C6U (mixed) RNA 1: CACCCGUGCAAAAUUGCAGGGGUCUAAAACGACCUGAAUAUUUCAGAUCAAA RNA 2: GGGAAUGGAUCCACAUCUACGAAUUCGUUUUUGAUCUGAAAUAUUUUGGUCUGCAGAUCGGAAGAGCACACGU", "Kd": "48 ± 6"}
{"binder": "target 3 del6,del9 (mixed) RNA 1: CACCCGUGCAAAAUUGCAGGGGUCUAAAACGACCUGAAUAUUUCAGAUCAAA RNA 2: GGGAAUGGAUCCACAUCUACGAAUUCGUUUUUGAUCUGAAAUUUAGGUCUGCAGAUCGGAAGAGCACACGU", "Kd": "120 ± 24"}
{"binder": "target 3 U8C,A9G (mixed) RNA 1: CACCCGUGCAAAAUUGCAGGGGUCUAAAACGACCUGAAUAUUUCAGAUCAAA RNA 2: GGGAAUGGAUCCACAUCUACGAAUUCGUUUUUGAUCUGAAAUGCUCAGGUCUGCAGAUCGGAAGAGCACACGU", "Kd": "77 ± 15.5"}
{"binder": "target 3 U2A,U8C (mixed) RNA 1: CACCCGUGCAAAAUUGCAGGGGUCUAAAACGACCUGAAUAUUUCAGAUCAAA RNA 2: GGGAAUGGAUCCACAUCUACGAAUUCGUUUUUGAUCUGAAAUACUCAGGACUGCAGAUCGGAAGAGCACACGU", "Kd": "44.5 ± 6"}
{"binder": "target 3 insU 3' of 13,insA 3' of 2 (mixed) RNA 1: CACCCGUGCAAAAUUGCAGGGGUCUAAAACGACCUGAAUAUUUCAGAUCAAA RNA 2: GGGAAUGGAUCCACAUCUACGAAUUCGUUUUUGAUCUGAUAAUAUUCAGGUACUGCAGAUCGGAAGAGCACACGU", "Kd": "74 ± 17.5"}
{"binder": "target 1 A1U,C6G (mixed) RNA 1: CACCCGUGCAAAAAUGCAGGGGUCUAAAACUGAGCGGAUAACCUCUCUAUGG RNA 2: GGGAAUGGAUCCACAUCUACGAAUUCGUACCAUAGAGAGGUUAUCGGCUCUCCGAGAUCGGAAGAGCACACGU", "Kd": "12.1 ± 0.9"}
{"binder": "target 1 A1U,C4U (mixed) RNA 1: CACCCGUGCAAAAAUGCAGGGGUCUAAAACUGAGCGGAUAACCUCUCUAUGG RNA 2: GGGAAUGGAUCCACAUCUACGAAUUCGUACCAUAGAGAGGUUAUCCGUUCUCCGAGAUCGGAAGAGCACACGU", "Kd": "13 ± 1.7"}
{"binder": "target 3 G4A,U8G (mixed) RNA 1: CACCCGUGCAAAAUUGCAGGGGUCUAAAACGACCUGAAUAUUUCAGAUCAAA RNA 2: GGGAAUGGAUCCACAUCUACGAAUUCGUUUUUGAUCUGAAAUAGUCAAGUCUGCAGAUCGGAAGAGCACACGU", "Kd": "77.5 ± 21"}
{"binder": "target 3 insC 3' of 18,insA 3' of 17 (mixed) RNA 1: CACCCGUGCAAAAUUGCAGGGGUCUAAAACGACCUGAAUAUUUCAGAUCAAA RNA 2: GGGAAUGGAUCCACAUCUACGAAUUCGUUUUUGACUACUGAAAUAUUCAGGUCUGCAGAUCGGAAGAGCACACGU", "Kd": "34.5 ± 11"}
